Measurements taken from patent US20160333095A1 (Genmab, published 2016).
Changes are numbered by the printed parent chain. In names and notes the source's numbering stands.

B1: IgG1-huCD3-H1L1 (antibody, V domains shown)
VH: EVKLVESGGGLVQPGGSLRLSCAASGFTFNTYAMNWVRQAPGKGLEWVARIRSKYNNYATYYADSVKDRFTISRDDSKSSLYLQMNNLKTEDTAMYYCVRHGNFGNSYVSWFAYWGQGTLVTVSS
VL: not shown
notes: IgG1,λ with wild-type Fc region
B2: IgG1-CD3-LFLEDA (antibody, V domains shown)
VH: B1 VH with V5L, G15K, R19K, K78Q, S80I, S125A
VL: QAVVTQESALTTSPGETVTLTCRSSTGAVTTSNYANWVQEKPDHLFTGLIGGTNKRAPGVPARFSGSLIGDKAALTITGAQTEDEAIYFCALWYSNLWVFGGGTKLTVL
notes: also called chimeric, parental CD3 antibody
B3: IgG1-huCD3-H3L3 (antibody, V domains shown)
VH: B1 VH with Q13K, G16R, S80I, N87S
VL: QAVVTQEPSFSVSPGGTVTLTCRSSTGAVTTSNYANWVQQTPGQAFRGLIGGTNKRAPGVPARFSGSILGNKAALTITGAQADDESDYYCALWYSNLWVFGGGTKLTVL
notes: as for B1
B4: IgG1-huCD3-H4L1 (antibody, V domains shown)
VH: B1 VH with Q13K, G16R, S80I, N87S, L120M
VL: not shown
notes: as for B1
B5: IgG1-huCD3-H3L1-LFLEDA (antibody, V domains shown)
VH: B1 VH with Q13K, G16R, S80I, N87S
VL: not shown
B6: IgG1-huCD3-H1L3 (antibody, V domains shown)
VH: B1 VH
VL: B3 VL
notes: as for B1
B7: IgG1-huCD3-H1L2 (antibody, V domains shown)
VH: B1 VH
VL: B3 VL with D87I, Y89F
notes: as for B1
B8: IgG1-huCD3-H4L3-LFLEDA (antibody, V domains shown)
VH: B1 VH with Q13K, G16R, S80I, N87S, L120M
VL: B3 VL
B9: IgG1-huCD3-H3L3-LFLEDA (antibody, V domains shown)
VH: B1 VH with Q13K, G16R, S80I, N87S
VL: B3 VL
B10: IgG1-huCD3-H1L3-LFLEDA (antibody, V domains shown)
VH: B1 VH
VL: B3 VL
B11: IgG1-huCD3-H4L1-LFLEDA (antibody, V domains shown)
VH: B1 VH with Q13K, G16R, S80I, N87S, L120M
VL: not shown
B12: IgG1-huCD3-H1L1-LFLEDA (antibody, V domains shown)
VH: B1 VH
VL: not shown
notes: also called IgG1-3huCD3-H1L1-LFLEDA; wild type IgG1-huCD3-H1L1-LFLEDA
B13: IgG1-huCD3-H1-LFLEDA-LL97H (antibody, V domains shown)
VH: B1 VH
VL: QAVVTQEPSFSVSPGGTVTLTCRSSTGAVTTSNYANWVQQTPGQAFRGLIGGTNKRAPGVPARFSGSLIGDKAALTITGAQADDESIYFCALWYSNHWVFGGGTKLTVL
notes: IgG1 with LFLEDA; supernatant preparation
B14: IgG1-huCD3-H1-LFLEDA-LK55N (antibody, V domains shown)
VH: B1 VH
VL: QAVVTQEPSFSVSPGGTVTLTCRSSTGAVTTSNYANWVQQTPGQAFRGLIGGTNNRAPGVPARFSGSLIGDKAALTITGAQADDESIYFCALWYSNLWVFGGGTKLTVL
notes: IgG1 with LFLEDA; supernatant preparation; also called K55N mutant
B15: IgG1-huCD3-H1-LFLEDA-LT41K (antibody, V domains shown)
VH: B1 VH
VL: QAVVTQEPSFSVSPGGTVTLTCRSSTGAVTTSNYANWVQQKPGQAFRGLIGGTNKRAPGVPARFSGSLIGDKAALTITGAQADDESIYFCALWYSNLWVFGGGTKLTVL
notes: IgG1 with LFLEDA; supernatant preparation; also called T41K mutant
B16: IgG1-huCD3-H1-LFLEDA-LF10L (antibody, V domains shown)
VH: B1 VH
VL: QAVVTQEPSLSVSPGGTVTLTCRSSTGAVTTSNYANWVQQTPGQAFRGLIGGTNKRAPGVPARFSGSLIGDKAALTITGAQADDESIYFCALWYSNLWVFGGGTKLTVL
notes: IgG1 with LFLEDA (L234F/L235E/D265A); tested as supernatant preparation; also called IgG1-huCD3-H1L1-LF10L (with LFLEDA)
B17: IgG1-huCD3-H1-LFLEDA-LLKNH (antibody, V domains shown)
VH: B1 VH
VL: B3 VL with F10L, T41K, K55N, I68L, L69I, N71D, D87I, Y89F, L97H
notes: IgG1 with LFLEDA; supernatant preparation; also called LKNH mutant
B18: bsIgG1-huCD3-H1L1-LK55N/HER2-LFLEDA (bispecific antibody, V domains shown)
VH 1: B1 VH
VL 1: not shown
VH 2: QVQLVQSGAEVKKPGASVKVSCKASGYTFTNYGISWVRQAPGQGLEWMGWLSAYSGNTIYAQKLQGRVTMTTDTSTTTAYMELRSLRSDDTAVYYCARDRIVVRPDYFDYWGQGTLVTVSS
VL 2: EIVLTQSPATLSLSPGERATLSCRASQSVSSYLAWYQQKPGQAPRLLIYDASNRATGIPARFSGSGSGTDFTLTISSLEPEDFAVYYCQQRSNWPRTFGQGTKVEIK
notes: LFLEDA = L234F/L235E/D265A; also called bsIgG1-huCD3-LK55N/HER2-LFLEDA
B19: bsIgG1 huCD3-H3L1×HER2-LFLEDA (bispecific antibody, V domains shown)
VH 1: B1 VH with Q13K, G16R, S80I, N87S
VL 1: not shown
VH 2: B18 VH 2
VL 2: B18 VL 2
notes: LFLEDA = L234F/L235E/D265A; also called bsIgG1 huCD3-H3L1-LFLEDA
B20: bsIgG1 CD3×HER2 (bispecific antibody, V domains shown)
VH 1: B1 VH with V5L, G15K, R19K, K78Q, S80I, S125A
VL 1: B2 VL
VH 2: B18 VH 2
VL 2: B18 VL 2
B21: bsIgG1-huCD3-H4L1×HER2-LFLEDA (bispecific antibody, V domains shown)
VH 1: B1 VH with Q13K, G16R, S80I, N87S, L120M
VL 1: not shown
VH 2: B18 VH 2
VL 2: B18 VL 2
notes: LFLEDA = L234F/L235E/D265A
B22: bsIgG1-huCD3-H1L3×HER2-LFLEDA (bispecific antibody, V domains shown)
VH 1: B1 VH
VL 1: B3 VL
VH 2: B18 VH 2
VL 2: B18 VL 2
notes: LFLEDA = L234F/L235E/D265A
B23: bsIgG1-huCD3-H1L1×HER2-LFLEDA (bispecific antibody, V domains shown)
VH 1: B1 VH
VL 1: not shown
VH 2: B18 VH 2
VL 2: B18 VL 2
notes: LFLEDA = L234F/L235E/D265A
B24: bsIgG1-huCD3-H4L3×HER2-LFLEDA (bispecific antibody, V domains shown)
VH 1: B1 VH with Q13K, G16R, S80I, N87S, L120M
VL 1: B3 VL
VH 2: B18 VH 2
VL 2: B18 VL 2
notes: LFLEDA = L234F/L235E/D265A
B25: bsIgG1-huCD3-H3L3×HER2-LFLEDA (bispecific antibody, V domains shown)
VH 1: B1 VH with Q13K, G16R, S80I, N87S
VL 1: B3 VL
VH 2: B18 VH 2
VL 2: B18 VL 2
notes: LFLEDA = L234F/L235E/D265A

target: T1, cynomolgus CD3 (cynomolgus monkey, UniProt Q95LI5 22-198); assay: flow cytometry on HSC-F cells, FIG. 2A
T1 construct: also called CD3 on the cynomolgus T-cell line HSC-F; cynomolgus CD3ε (epsilon)
Description: (§1) In addition to the non-activating mutations, LFLEDA, the antibody variants contained F405L or K409R mutations as described in Example 1.
(§2) Cells (1×10⁵ cells/well) were incubated in polystyrene 96-well round-bottom plates (Greiner bio-one 650101) with serial dilutions of antibody preparations (range 5 to 10,000 ng/mL in 3-fold dilutions) in 100 μL PBS/0.1% BSA/0.02% azide at 4° C. for 30 min.
(§3) After washing twice in PBS/0.1% BSA/0.02% azide, cells were incubated in 100 μL with secondary antibody at 4° C. for 30 min. As a secondary antibody, R-Phycoerythrin (PE)-conjugated goat-anti-human IgG F(ab′)2 (109-116-098, Jackson ImmunoResearch Laboratories, Inc., West Grove, Pa.) diluted 1/100 in PBS/0.1% BSA/0.02% azide, was used for all experiments. Next, cells were washed twice in PBS/0.1% BSA/0.02% azide, re-suspended in 150 μL PBS/0.1% BSA/0.02% azide and analyzed on a FACS Cantoll (BD Biosciences). Binding curves were analyzed using non-linear regression (sigmoidal dose-response with variable slope) using GraphPad Prism V 5.04 software (GraphPad Software, San Diego, Calif., USA).

T1 sequence (Q95LI5 22-198): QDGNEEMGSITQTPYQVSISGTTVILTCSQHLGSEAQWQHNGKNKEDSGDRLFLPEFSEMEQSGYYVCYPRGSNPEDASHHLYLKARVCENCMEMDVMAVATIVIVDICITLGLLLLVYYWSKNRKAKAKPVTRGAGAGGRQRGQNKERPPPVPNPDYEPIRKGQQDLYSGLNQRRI

Binder | binding result
B1 | binds
B2 | binds
B3 | binds
B4 | binds
B5 | binds
B6 | binds
B7 | binds

target: T1, cynomolgus CD3; assay: flow cytometry on HSC-F cells, FIG. 7A
Description: as §1, §2, §3

Binder | binding result
B8 | binds
B9 | binds
B10 | binds
B11 | binds
B12 | binds

target: T2, human CD3 (human, UniProt P07766 22-207); assay: flow cytometry on Jurkat cells, supernatant preparations, FIG. 21
T2 construct: also called CD3 on the human T-cell line Jurkat; CD3 on human T cells
Description: (§4) Jurkat cells (DSMZ, Brunswick, Germany) were thawed at 37° C. and washed once in 30 mL PBS and spun for 10 minutes at 300×g at 4° C. Cell pellet was resuspended in 25 mL of PBS/0.1% BSA/0.02% azide at a final concentration of 0.8×10⁶ cells/mL. 100 μL of this cell suspension (0.8×10⁵ cells/well) was transferred into polystyrene 96-well round-bottom plates (Greiner Bio-one, Alphen a/d Rijn, The Netherlands) and incubated with serial dilutions of supernatant preparations (range 3 to 10,000 ng/mL in 3-fold dilutions) in PBS/0.1% BSA/0.02% azide at 4° C. for 30 minutes. After washing three times in PBS/0.1% BSA/0.02% azide, Jurkat cells were incubated in 50 μL with secondary antibody at 4° C. for 30 min. As a secondary antibody, R-Phycoerythrin (PE)-conjugated goat-anti-human IgG F(ab′)2 (Jackson ImmunoResearch Laboratories, Inc., West Grove, Pa.) diluted 1/200 in PBS/0.1% BSA/0.02% azide, was used for all experiments. Next, Jurkat cells were washed twice in PBS/0.1% BSA/0.02% azide, re-suspended in 150 μL PBS/0.1% BSA/0.02% azide and analyzed on a FACS Cantoll (BD Biosciences). Binding curves were analyzed using nonlinear regression (sigmoidal dose-response with variable slope) using GraphPad Prism V 5.04 software (GraphPad Software, San Diego, Calif., USA).

T2 sequence (P07766 22-207 limits assumed): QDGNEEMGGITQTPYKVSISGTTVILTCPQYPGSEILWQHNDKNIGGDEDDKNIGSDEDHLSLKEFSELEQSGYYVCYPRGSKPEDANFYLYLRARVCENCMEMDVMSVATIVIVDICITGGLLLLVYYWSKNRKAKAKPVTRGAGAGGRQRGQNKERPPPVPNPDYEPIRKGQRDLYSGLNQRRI

Binder | EC50 [µg/mL]
B13 | 0.095
B14 | 0.531
B15 | 0.096
B16 | 0.169
B17 | 0.438

target: T2, human CD3; assay: flow cytometry on isolated human T cells, FIG. 22
Description: As a secondary antibody, R-Phycoerythrin (PE)-conjugated goat-anti-human IgG F(ab′)2 (Jackson ImmunoResearch Laboratories, Inc., West Grove, Pa.) diluted 1/200 in PBS/0.1% BSA/0.02% azide, was used for all experiments. […] Binding curves were analyzed using nonlinear regression (sigmoidal dose-response with variable slope) using GraphPad Prism V 5.04 software (GraphPad Software, San Diego, Calif., USA).

Binder | EC50 [µg/mL]
B18 | 0.61

target: T1, cynomolgus CD3; assay: flow cytometry on HSC-F cells, FIG. 2B
Description: as §1, §2, §3

Binder | binding result
B19 | binds
B20 | binds

target: T2, human CD3; assay: flow cytometry on Jurkat cells, FIG. 21
Description: as §4

Binder | fold lower apparent affinity than wild type IgG1-huCD3-H1L1-LFLEDA [fold]
B14 | 5
B17 | 5

target: T1, cynomolgus CD3; assay: flow cytometry on HSC-F cells, FIG. 7B
Description: as §1, §2, §3

Binder | binding result
B21 | binds
B22 | binds
B23 | binds
B24 | binds
B25 | binds
